Changes are numbered by the printed parent chain. Where two headings read alike, the source gives them in different places.

We go through 7 molecules from patent US20220372138A1 (IOMX THERAPEUTICS, published 2022).

For test [1], the target named is T1, full-length ECD of human IGSF11 fused to murine Fc (human, UniProt Q5DX21 23-241).
T1 construct: also called Fc-fusion IGSF11 ECD; not shown: murine Fc
T1 sequence: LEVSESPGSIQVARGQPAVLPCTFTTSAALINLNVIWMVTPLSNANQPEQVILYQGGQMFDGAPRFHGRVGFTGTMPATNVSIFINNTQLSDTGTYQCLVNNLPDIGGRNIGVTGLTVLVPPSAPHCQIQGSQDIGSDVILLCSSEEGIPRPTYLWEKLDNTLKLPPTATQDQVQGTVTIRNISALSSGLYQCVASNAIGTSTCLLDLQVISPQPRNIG
The test can be described thus: IgG ELISA. For orientation: ELISA stands for enzyme-linked immunosorbent assay.

Test [2] deals with T2, IgV domain of human IGSF11 fused to murine IgG2a Fc (human, UniProt Q5DX21 23-143).
T2 construct: not shown: murine IgG2a Fc-region
T2 sequence: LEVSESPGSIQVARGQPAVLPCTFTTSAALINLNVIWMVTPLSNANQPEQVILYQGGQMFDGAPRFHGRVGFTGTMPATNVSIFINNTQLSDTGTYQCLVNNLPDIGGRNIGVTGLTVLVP
The test can be described thus: IgG ELISA.

The target in test [3] is T3, human IGSF11 (VSIG3) ECD, His-tagged (human, UniProt Q5DX21 23-241).
T3 construct: in part bought (SinoBiological 13094-H08H); also called HIS-IGSF11; IGSF11-HIS; not shown: His tag
T3 sequence: T1 sequence
In words: IgG1 ELISA EC50 <0.02 nM.

Test [4] concerns the target T4, human IGSF11 (VSIG3) expressed on cells (human, UniProt Q5DX21 23-431).
T4 sequence: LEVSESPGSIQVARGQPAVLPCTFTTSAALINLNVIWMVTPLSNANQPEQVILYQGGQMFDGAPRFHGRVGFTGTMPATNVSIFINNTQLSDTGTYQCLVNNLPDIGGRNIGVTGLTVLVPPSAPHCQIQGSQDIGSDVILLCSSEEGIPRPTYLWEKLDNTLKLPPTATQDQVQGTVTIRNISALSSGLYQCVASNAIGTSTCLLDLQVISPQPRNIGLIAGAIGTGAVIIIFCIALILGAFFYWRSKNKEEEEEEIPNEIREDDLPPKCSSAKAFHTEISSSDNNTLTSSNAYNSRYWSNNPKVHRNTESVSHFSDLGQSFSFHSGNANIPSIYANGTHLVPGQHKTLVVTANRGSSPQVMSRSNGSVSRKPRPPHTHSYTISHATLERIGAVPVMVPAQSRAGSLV
The test can be described thus: IgG FACS Colo741.
Excerpt: (§1) Unbound antibodies were removed by washing the cells three time with FACS buffer. Bound antibodies were detected with a mouse anti-human IgG antibody conjugated with AlexaFluor647.

Test [5] has as its target T5, murine IGSF11 expressed on cells (mouse, UniProt P0C673 23-428).
T5 construct: MC38-IGSF11, CT26-IGSF11, MC38-wt (naturally expresses murine IGSF11)
T5 sequence: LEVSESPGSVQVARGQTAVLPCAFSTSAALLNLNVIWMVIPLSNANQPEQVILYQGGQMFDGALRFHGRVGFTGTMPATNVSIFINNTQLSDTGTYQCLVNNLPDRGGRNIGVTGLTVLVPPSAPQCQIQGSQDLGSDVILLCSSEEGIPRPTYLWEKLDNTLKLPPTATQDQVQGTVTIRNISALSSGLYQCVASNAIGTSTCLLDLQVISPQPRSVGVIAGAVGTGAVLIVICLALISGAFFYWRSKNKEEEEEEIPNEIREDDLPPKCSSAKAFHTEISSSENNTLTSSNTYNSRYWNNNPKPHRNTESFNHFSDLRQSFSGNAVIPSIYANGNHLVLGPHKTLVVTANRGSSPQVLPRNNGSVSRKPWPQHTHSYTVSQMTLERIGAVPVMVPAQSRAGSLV
The test can be described thus: IgG FACS MC38-wt.
Excerpt: as §1

In test [6] the target is T6, extracellular domain (ECD) of human IGSF11 (VSIG3), recombinant (human, UniProt Q5DX21 23-241).
T6 construct: biotinylated where captured on streptavidin; tags of the reagent not always stated; also called IGSF11 (ECD domain); ECD-IGSF11
T6 sequence: T1 sequence
In words: SPR.

The target in test [7] is T4, human IGSF11 (VSIG3) expressed on cells. In words: IgG1 FACS HEK-OE.
Test [8] has the same target. The test can be described thus: IgG1 FACS DMS 273.
Test [9] has the same target. In words: FACS, DMS 273 cells with scrambled control siRNA (SC).
For test [10] the target is unchanged. The test can be described thus: FACS, M579-A2-luc cells with scrambled control siRNA (SC).
Test [11] shares this target. The test can be described thus: FACS, DMS 273 cells with IGSF11 siRNA (KD, knock-down control).
The target is the same in test [12]. The test can be described thus: FACS, M579-A2-luc cells with IGSF11 siRNA (KD, knock-down control). (Flow cytometry measures light scatter and fluorescence of single cells or particles in a stream.)
In test [13] the target is T3, human IGSF11 (VSIG3) ECD, His-tagged. In words: ELISA: IGSF11-HIS coated, IgG1 dilution series, anti-human antibody-HRP, TMB.
For test [14] the target is unchanged. The test can be described thus: blocking ELISA: VSIR-Fc immobilised, IgG dilution series pre-incubated with 200 nM IGSF11 ECD-His, bound IGSF11 detected with anti-His-HRP.
The target is the same in test [15]. The test is described as above. This is another data set of the same source.
The target of test [16] is T6, extracellular domain (ECD) of human …. In words: BLI. On the technique in general: BLI is a label-free optical method that tracks binding on a fibre tip over time.
For test [17] the target is unchanged. In words: SPR. This is another data set of the same source.
Test [18] deals with T3, human IGSF11 (VSIG3) ECD, His-tagged. The test can be described thus: IgG1 ELISA EC50 0.02-0.05 nM.
The target is the same in test [19]. In words: ELISA: IGSF11-HIS coated, IgG1 dilution series, anti-human antibody-HRP, TMB. This is another data set of the same source.

B1: A-010 (IgG1 format) (antibody, V domains shown)
VH: QVQLVQSGAEVKKPGASVKVSCKASGYTFTSYGISWVRQAPGQGLEWMGWISAYNGNTNYAQKLQGRVTMTTDTSTSTAYMELRSLRSDDTAVYYCARVPAWSGQFDYWGQGTLVTVSS
VL: QSALTQPASVSGSPGQSITISCTGSSSDVGGYNYVSWYQQYPGKAPKLMIYDVRSRPSGVSNRFSGSKSGNTASLTISGLQAEDEADYYCTSYTSSNTLVIFGGGTKVTVL
notes: human IgG1 format
A word on the EC50: it is the concentration at which the effect is half-maximal. With B1, the 50% effective concentration (EC50) in [1] is less than 1 nM; in [2], less than 1 nM; in [3], less than 0.02 nM.

B2: D-116 (IgG format) (antibody, V domains shown)
VH: EVQLLESGGGLVQPGGSLRLSCAASGFTFKHSAISWVRQAPGKGLEWVSAISYGGGSQYYADSVKGRFTISRDNSKNTLYLQMNSLRAEDTAVYYCARDSRDAYGVAFDLWGQGTMVTVSS
VL: ASVLTQPPSVSAAPGQKVTISCSGSSSNIGNNYVSWYQQLPGTAPKLLIYDNNKRPSGIPDRFSGSKSGTSATLGITGLQAEDEADYYCQSYGHRSFVFGGGTKLTVL
On to B2, for which the EC50 in test [4] is less than 0.5 nM; in test [5], less than 0.1 nM.

B3: B-002 (chain-swapped IgG1) (antibody, V domains shown)
VH: EVQLVESGGGLIQPGGSLRLSCAASGFTVSSNYMSWVRQAPGKGLEWVSVIYSGGSTYYADSVKGRFTISRDNSKNTLYLQMNSLRAEDTAVYYCARGNPYYYGDLQVNFDYWGQGTLVTVSS
VL: QAVVTQEPSLTVSPGGTVTLTCASSTGAVTSGYYPNWFQQKPGQAPRALIYSTSNKHSWTPARFSGSLLGGKAALTLSGVQPEDEAEYYCLLYYGGAWVFGGGTKLTVL
notes: human IgG1 format; also called B2
One may read the Kd as the free concentration of one partner at which half of the binding sites on the other are occupied at equilibrium, for simple one-to-one binding. One may read the EC50 (read off the curve) as the concentration at which the effect is half-maximal. Low values mean higher potency in that assay, high ones lower potency in that assay. Consider B3, for which, in [6], the dissociation constant Kd is 100 to 250 nM. In addition, the EC50 in test [7] is 10 to 50 nM; in test [8], greater than 50 nM. For the same molecule, the “% binding (FACS heat-map)” value in test [9] came out at 80.1%; in test [10], 70.7%; in test [11] it was 8.68%; in [12], 2.77%. Further, in test [13], the concentration giving a half-maximal response (EC50 (read off the curve)) is roughly 0.01 nM. The “IC50 (read off the curve)” value in [14] lay within 4 to 5 nM.

B4: B-001 (chain-swapped IgG1) (antibody, V domains shown)
VH: B3 VH with V5L, A24V
VL: B3 VL with G32A, E87D
notes: human IgG1 format; also called B1
On to B4, for which, in [6], the dissociation constant (Kd) lay within 250 to 500 nM. For the same molecule, in test [7], the EC50 lay in the range of 10 to 50 nM. Besides, in test [15], the “IC50 (read off the curve)” value was roughly 2 nM.

B5: A-012 (IgG1 format) (antibody, V domains shown)
VH: B3 VH with V5L, A24V
VL: B3 VL
notes: human IgG1 format
On to B5, for which the dissociation constant (Kd) was 1 to 10 nM in test [16] and 250 to 500 nM in test [17]. Moreover, the EC50 lay in the range of 10 to 50 nM in [7], 10 to 50 nM in test [8] and 0.02 to 0.05 nM in test [18]. In addition, the “% binding (FACS heat-map)” value is 75.8% in test [9], 65.4% in [10], 4.77% in test [11] and 2.35% in test [12]. Further, in test [19], the half-maximal effective concentration (EC50 (read off the curve)) was roughly 8 pM. Moreover, the “IC50 (read off the curve)” value in test [15] is roughly 2 nM.

B6: D-223 (IgG format) (antibody, V domains shown)
VH: EVQLVESGGGLVKPGGSLRLSCAASGFTFSHAWISWVRQAPGKGLEWVGQIKGGPGSGGTSYAEPVKGRFTISRDDSKNTLYLQMNSLKTEDTAVYYCARLGIYSGFDYWGQGTLVTVSS
VL: SYELTQPPSVSVSPGQTASITCSGDKLGDKYASWYQQKPGQSPVLVIYQDSKRPSGIPERFSGSNSGNTATLTISGTQAEDEADYYCHSYLHLPPTVVFGGGTKLTVL
For the molecule B6, the 50% effective concentration (EC50) in test [4] and in test [5] was less than 0.5 nM each time.

B7: A-004 (IgG1 format) (antibody, V domains shown)
VH: EVQLVESGGGLVKPGGSLRLSCAASGFTFSSYSMNWVRQAPGKGLEWVSSISSSSSYIYYADSVKGRFTISRDNAKNSLYLQMNSLRAEDTAVYYCARGQLLWFGESALIDAFDIWGQGTMVTVSS
VL: EIVLTQSPSSLSASVGDRVTITCRASQSISSYLNWYQLKPGKAPKLLIYAASILQSGVPSRFSGSGSGTDFTLTISSLQPEDFAAYYCQQSYSTPRTFGQGTKLEIK
notes: human IgG1 format
For the molecule B7, the dissociation constant Kd in [17] is 100 to 250 nM. In addition, the 50% effective concentration (EC50) in test [1] is 1 to 20 nM; in test [2], 1 to 20 nM; in [3] it was less than 0.02 nM.
